# According to patent publication US20130252821A1, “METHODS AND COMPOSITIONS FOR THE TREATMENT AND DIAGNOSIS OF DISEASES CHARACTERIZED BY VASCULAR LEAK, HYPOTENSION, OR A PROCOAGULANT STATE” (Beth Israel Deaconess Medical Center, Inc., priority 2005, published 2013):
# B1: Ang-1: Human recombinant angiopoietin-1 purchased from R&D systems; Tie-2 agonist, endogenous Ang-2 antagonist (protein, listed as Homo sapiens)
# chain: MTVFLSFAFLAAILTHIGCSNQRRSPENSGRRYNRIQHGQCAYTFILPEHDGNCRESTTDQYNTNALQRDAPHVEPDFSSQKLQHLEHVMENYTQWLQKLENYIVENMKSEMAQIQQNAVQNHTATMLEIGTSLLSQTAEQTRKLTDVETQVLNQTSRLEIQLLENSLSTYKLEKQLLQQTNEILKIHEKNSLLEHKILEMEGKHKEELDTLKEEKENLQGLVTRQTYIIQELEKQLNRATTNNSVLQKQQLELMDTVHNLVNLCTKEGVLLKGGKREEEKPFRDCADVYQAGFNKSGIYTIYINNMPEPKKVFCNMDVNGGGWTVIQHREDGSLDFQRGWKEYKMGFGNPSGEYWLGNEFIFAITSQRQYMLRIELMDWEGNRAYSQYDRFHIGNEKQNYRLYLKGHTGTAGKQSSLILHGADFSTKDADNDNCMCKCALMLTGGWWFDACGPSNLNGMFYTAGQNHGKLNGIKWHYFKGPSYSLRSTTMMIRPLDF
# Key:
# Assay type in all cases: cell-based, human
# [1] = tested on: myosin light chain (MLC) phosphorylation in HMVECs; test: MLC phosphorylation assay (Western blot); details: Ang-1 100 ng/ml added
# Description: After signal starvation with 0.25% FBS EBM-2 for 24 h, cells were treated with 100 ng/ml Ang-2 or vehicle for 0, 1, 3, and 6 hours. Phosphorylated myosin light chain (MLC-p) (phospho-serine 19) and GAPDH were detected by Western blot analysis. For human subject serum effects on HMVECs, serum was diluted to 5% with EBM-2 and filtered with low protein binding PVDF membrane (0.22 μm, Millipore Corp, Bedford, Mass.). Anti-MLC-phospho-serine-19 Ab was obtained from Abcam Inc.
# HMVEC-L monolayer = test: Measurement of endothelial permeability in vitro (FITC-albumin)
# Description: Coster Transwell membranes (Corning Inc. Corning, N.Y.) were coated with 0.5% Gelatin and cells were grown until confluence. Vehicle or proteins with FITC-albumin (1 mg/ml) was added to the luminal chamber for 4 hours, and samples were taken from both the luminal and abluminal chamber for fluorometry analysis. The readings were converted with the use of a standard curve to albumin concentration. These concentrations were then used in the following equation to determine the permeability coefficient of albumin (Pa).
# [A] is abluminal concentration; t is time in seconds; A is area of membrane in cm^2; V is volume of abluminal chamber; and [L] is luminal concentration. siRNA Transfection: HMVEC-Ls were seeded and control small interfering RNA (siRNA) (Ambion, Ausin, Tex.) or siRNA directed to human p190RhoGAP (5′-[…]-3′ SEQ ID NO: 5 and 5′-[…]-3′ SEQ ID NO: 6) was transfected using SilentFect Lipid reagent (Bio-Rad) according to the manufacturer's instructions. The cells were used for each experiment 3 days after transfection. Almost 90-100% cells were transfected with siRNA (checked by fluorescent labeled siRNA). Down-regulation of p190RhoGAP was verified by immunoblotting. We tested two different siRNA for the experiment and obtained similar results.
# Akt = Akt phosphorylation (Western blot) in HMVEC-L; details: Ang-1 100 ng/ml, 15 minutes
# Description: (§1) HMVEC-L were washed with ice-cold PBS three times and lysed with ice-cold RIPA buffer (50 mM Tris-HCl pH7.4, 150 mM NaCl, 1% NP-40, 0.5% Sodium Deoxycholate, 0.1% SDS and 1 mM EDTA) supplemented with protease inhibitors (Roche Diagnostics, Indianapolis, Ind.), 1 mM NaF and 1 mM Na3VO4. Lysates were sonicated and centrifuged at 10,000 rpm for 10 minutes at 4° C., and supernatants were collected. Protein concentrations were determined by BCA protein assay with bovine serum albumin as standard (Pierce, Rockford, Ill.). Lysates were electrophoresed using NuPAGE system (Invitrogen Life Technologies, Franklin Lakes, N.J.) and transferred to PVDF membrane and immunoblotted with specific primary antibodies. Binding of primary antibodies was detected using horseradish peroxidase-conjugated secondary antibodies (Amersham Bioscience, Piscataway, N.J.) and SuperSignal WestDura (Pierce) as a chemiluminescence substrate. Primary antibodies were obtained from these suppliers: anti-phospho-Akt Ab (Ser 473), anti-Akt Ab and anti-phospho-myosin light chain 2 (Ser19) Ab were from Cell Signaling Technology; anti-GAPDH Ab was from Chemicon International (Temecula, Calif.).
# RhoA = test: Rho activity assay (pull-down) in HMVEC-L
# Description: These were performed and quantified using the commercially available kit according to the manufacturer's instruction (Cytoskeleton, Denver, Colo.). After signal starvation, HMVEC-L were treated with vehicle, Ang-1 (100 ng/ml) with or without inhibitor for the indicated time and harvested with lysis buffer. Following a brief centrifugation to remove cell debris, lysates from the cells containing equivalent protein concentrations were incubated for 60 minutes with 40 μL slurry of a GST-fusion protein composed of Rac1 or RhoA effector proteins coupled to agarose beads. After washing with lysis buffer, samples were subjected to immunoblotting and detected with anti-Rac1 or anti-RhoA antibody (Santa Cruz Biotechnology, Santa Cruz, Calif.). Whole cell lysates were also run to determine the total amount of Rac1 or RhoA protein.
# HMVEC monolayers = test: Immunofluorescence of endothelial architecture (F-actin, VE-cadherin); details: 10% patient serum plus 100 ng/ml recombinant human Ang-1
# Description: HMVEC were grown to confluence on glass coverslips coated with 1% gelatin. The cells were fixed for 10 minutes in 4% paraformaldehyde in PBS, incubated for 5 min in 0.5% Triton X-100 in PBS. After blocking, the monolayers were processed for staining with anti-VE-cadherin monoclonal antibody (BD Pharmingen, San Diego, Calif.) and Alexa Fluoro 488 goat anti-mouse IgG, rhodamine phalloidin (Molecular Probe, Eugene, Oreg.) for F-actin staining and TOPRO-3-iodine (Molecular Probe) for nuclear staining. Fluorescence images were obtained using a Bio Rad MRC confocal fluorescence microscope. For human subject serum experiments, serum was diluted to 10% with EBM-2 and filtered with low protein binding PVDF membrane (0.22 μm, Millipore Corp) prior to application on endothelial cell monolayers.
# [2] = tested on: MLC phosphorylation (MLC-P); test: MLC-P immunoblot in HMVEC-L; details: Ang-1, HMVEC-L
# Description: as §1
molecule,measurement,setting,value
B1,effect on MLC phosphorylation caused by high Ang-2 serum (CE2),[1],inhibited
same,basal monolayer permeability,"HMVEC-L monolayer; Ang-1 100 ng/ml, 4 hours",somewhat decreased
same,effect on endotoxin-induced permeability,HMVEC-L monolayer; LPS with Ang-1,completely reversed
same,Akt phosphorylation,Akt,induces Akt phosphorylation
same,RhoA activity,RhoA; HMVEC-L treated with Ang-1,decreased 30 minutes after
same,effect on endotoxin-induced RhoA activity,RhoA; co-incubation with Ang-1,reversed
same,reversal of gap formation provoked by high Ang-2 sepsis serum,HMVEC monolayers,reversed
same,time of peak MLC phosphorylation (MLC-P) after stimulation,[2],0.5 to 1.0 h
